For this series, the system named is DYT1 patient plasma derived EVs. The experiment in a line: Plasma-derived EV proteomics (ExoQuick ULTRA, DIA LC/MS/MS), DYT1 vs Healthy Controls. Further details: species or system human. To be noted: Hs. Plasma EVs (DYT1/WT); significance of genotype difference. The method, then: Data was obtained for extracellular vesicles using previously acquired samples. The ExoQuick® ULTRA EV Isolation System was used to fractionate and enrich EVs from plasma. Isolated plasma EV samples were then submitted to proteomic analysis by the Duke Proteomics and Metabolomics Core Facility (DPMCF). At the DPMCF, quantitative (LC/MS/MS) was performed on 500 ng of each sample, using an EvoSep One UPLC system coupled to a Thermo Orbitrap Astral high-resolution accurate mass tandem mass spectrometer (Thermo). Briefly, the sample was eluted directly from an Evotip which was subjected to a low organic wash and then subjected to an analytical separation using a 1.7 μm EvoSep 150 um ID×15 cm endurance (EveoSep) column running an SPD30 gradient from approximately 5 to 30% acetonitrile with 0.1% formic acid with a column temperature of 50 C. Data collection on the Orbitrap Astral mass spectrometer was performed in a data-independent acquisition (DIA) mode of acquisition with a r=240,000 (@m/z 200) full MS scan from m/z 380-980 with a target AGC value of 4e5 ions. Fixed DIA, windows of 4 m/z from m/z 380 to 980 DIA MS/MS scans were acquired in the Astral with a target AGC value of 5e4 and a max fill time of 6 ms. HCD collision energy setting of 27% was used for all MS2 scans.

Here are results for eight molecules from patent publication US20260266848A1, “COMPOSITIONS AND METHODS FOR DIAGNOSING AND TREATING DYSTONIA” (Duke University, priority 2023, published 2026).

B1: LIPG (protein, UniProt Q9Y5X9 21-500, looked up)
Endothelial lipase: SPVPFGPEGRLEDKLHKPKATQTEVKPSVRFNLRTSKDPEHEGCYLSVGHSQPLEDCSFNMTAKTFFIIHGWTMSGIFENWLHKLVSALHTREKDANVVVVDWLPLAHQLYTDAVNNTRVVGHSIARMLDWLQEKDDFSLGNVHLIGYSLGAHVAGYAGNFVKGTVGRITGLDPAGPMFEGADIHKRLSPDDADFVDVLHTYTRSFGLSIGIQMPVGHIDIYPNGGDFQPGCGLNDVLGSIAYGTITEVVKCEHERAVHLFVDSLVNQDKPSFAFQCTDSNRFKKGICLSCRKNRCNSIGYNAKKMRNKRNSKMYLKTRAGMPFRVYHYQMKIHVFSYKNMGEIEPTFYVTLYGTNADSQTLPLEIVERIEQNATNTFLVYTEEDLGDLLKIQLTWEGASQSWYNLWKEFRSYLSQPRNPGRELNIRRIRVKSGETQRKLTFCTEDPENTSISPGRELWFRKCRDGWRMKNETSPTVELP
For B1, the “-LogP” value turned out to be 1.303.

B2: WDR26 (protein, UniProt Q9H7D7 1-661, looked up)
WD repeat-containing protein …: MQANGAGGGGGGGGGGGGGGGGGGGQGQTPELACLSAQNGESSPSSSSSAGDLAHANGLLPSAPSAASNNSNSLNVNNGVPGGAAAASSATVAAASATTAASSSLATPELGSSLKKKKRLSQSDEDVIRLIGQHLNGLGLNQTVDLLMQESGCRLEHPSATKFRNHVMEGDWDKAENDLNELKPLVHSPHAIVVRGALEISQTLLGIIVRMKFLLLQQKYLEYLEDGKVLEALQVLRCELTPLKYNTERIHVLSGYLMCSHAEDLRAKAEWEGKGTASRSKLLDKLQTYLPPSVMLPPRRLQTLLRQAVELQRDRCLYHNTKLDNNLDSVSLLIDHVCSRRQFPCYTQQILTEHCNEVWFCKFSNDGTKLATGSKDTTVIIWQVDPDTHLLKLLKTLEGHAYGVSYIAWSPDDNYLVACGPDDCSELWLWNVQTGELRTKMSQSHEDSLTSVAWNPDGKRFVTGGQRGQFYQCDLDGNLLDSWEGVRVQCLWCLSDGKTVLASDTHQRIRGYNFEDLTDRNIVQEDHPIMSFTISKNGRLALLNVATQGVHLWDLQDRVLVRKYQGVTQGFYTIHSCFGGHNEDFIASGSEDHKVYIWHKRSELPIAELTGHTRTVNCVSWNPQIPSMMASASDDGTVRIWGPAPFIDHQNIEEECSSMDS
Turning to B2, the “-LogP” value was 1.772.

B3: MRC2 (protein, UniProt Q9UBG0 31-1479, looked up)
C-type mannose receptor 2: GAPGDAALPEPNVFLIFSHGLQGCLEAQGGQVRVTPACNTSLPAQRWKWVSRNRLFNLGTMQCLGTGWPGTNTTASLGMYECDREALNLRWHCRTLGDQLSLLLGARTSNISKPGTLERGDQTRSGQWRIYGSEEDLCALPYHEVYTIQGNSHGKPCTIPFKYDNQWFHGCTSTGREDGHLWCATTQDYGKDERWGFCPIKSNDCETFWDKDQLTDSCYQFNFQSTLSWREAWASCEQQGADLLSITEIHEQTYINGLLTGYSSTLWIGLNDLDTSGGWQWSDNSPLKYLNWESDQPDNPSEENCGVIRTESSGGWQNRDCSIALPYVCKKKPNATAEPTPPDRWANVKVECEPSWQPFQGHCYRLQAEKRSWQESKKACLRGGGDLVSIHSMAELEFITKQIKQEVEELWIGLNDLKLQMNFEWSDGSLVSFTHWHPFEPNNFRDSLEDCVTIWGPEGRWNDSPCNQSLPSICKKAGQLSQGAAEEDHGCRKGWTWHSPSCYWLGEDQVTYSEARRLCTDHGSQLVTITNRFEQAFVSSLIYNWEGEYFWTALQDLNSTGSFFWLSGDEVMYTHWNRDQPGYSRGGCVALATGSAMGLWEVKNCTSFRARYICRQSLGTPVTPELPGPDPTPSLTGSCPQGWASDTKLRYCYKVFSSERLQDKKSWVQAQGACQELGAQLLSLASYEEEHFVANMLNKIFGESEPEIHEQHWFWIGLNRRDPRGGQSWRWSDGVGFSYHNFDRSRHDDDDIRGCAVLDLASLQWVAMQCDTQLDWICKIPRGTDVREPDDSPQGRREWLRFQEAEYKFFEHHSTWAQAQRICTWFQAELTSVHSQAELDFLSHNLQKFSRAQEQHWWIGLHTSESDGRFRWTDGSIINFISWAPGKPRPVGKDKKCVYMTASREDWGDQRCLTALPYICKRSNVTKETQPPDLPTTALGGCPSDWIQFLNKCFQVQGQEPQSRVKWSEAQFSCEQQEAQLVTITNPLEQAFITASLPNVTFDLWIGLHASQRDFQWVEQEPLMYANWAPGEPSGPSPAPSGNKPTSCAVVLHSPSAHFTGRWDDRSCTEETHGFICQKGTDPSLSPSPAALPPAPGTELSYLNGTFRLLQKPLRWHDALLLCESRNASLAYVPDPYTQAFLTQAARGLRTPLWIGLAGEEGSRRYSWVSEEPLNYVGWQDGEPQQPGGCTYVDVDGAWRTTSCDTKLQGAVCGVSSGPPPPRRISYHGSCPQGLADSAWIPFREHCYSFHMELLLGHKEARQRCQRAGGAVLSILDEMENVFVWEHLQSYEGQSRGAWLGMNFNPKGGTLVWQDNTAVNYSNWGPPGLGPSMLSHNSCYWIQSNSGLWRPGACTNITMGVVCKLPRAEQSSFSPSALPENPAALVVVLMAVLLLLALLTAALILYRRRQSIERGAFEGARYSRSSSSPTEATEKNILVSDMEMNEQQE
Take B3: the “-LogP” value is 1.456.

B4: RAP2B (protein, UniProt P61225 1-180, looked up)
Ras-related protein Rap-2b: MREYKVVVLGSGGVGKSALTVQFVTGSFIEKYDPTIEDFYRKEIEVDSSPSVLEILDTAGTEQFASMRDLYIKNGQGFILVYSLVNQQSFQDIKPMRDQIIRVKRYERVPMILVGNKVDLEGEREVSYGEGKALAEEWSCPFMETSAKNKASVDELFAEIVRQMNYAAQPNGDEGCCSAC
On to B4, for which the “-LogP” value came out at 2.656.

B5: NDNF (protein, UniProt Q8TB73 20-568, looked up)
Protein NDNF: QKLPTRDEELFQMQIRDKAFFHDSSVIPDGAEISSYLFRDTPKRYFFVVEEDNTPLSVTVTPCDAPLEWKLSLQELPEDRSGEGSGDLEPLEQQKQQIINEEGTELFSYKGNDVEYFISSSSPSGLYQLDLLSTEKDTHFKVYATTTPESDQPYPELPYDPRVDVTSLGRTTVTLAWKPSPTASLLKQPIQYCVVINKEHNFKSLCAVEAKLSADDAFMMAPKPGLDFSPFDFAHFGFPSDNSGKERSFQAKPSPKLGRHVYSRPKVDIQKICIGNKNIFTVSDLKPDTQYYFDVFVVNINSNMSTAYVGTFARTKEEAKQKTVELKDGKITDVFVKRKGAKFLRFAPVSSHQKVTFFIHSCLDAVQIQVRRDGKLLLSQNVEGIQQFQLRGKPKAKYLVRLKGNKKGASMLKILATTRPTKQSFPSLPEDTRIKAFDKLRTCSSATVAWLGTQERNKFCIYKKEVDDNYNEDQKKREQNQCLGPDIRKKSEKVLCKYFHSQNLQKAVTTETIKGLQPGKSYLLDVYVIGHGGHSVKYQSKVVKTRKFC
For the molecule B5, the “-LogP” value turned out to be 1.312.

B6: GART (protein, UniProt P22102 2-1010, looked up)
Trifunctional purine …: AARVLIIGSGGREHTLAWKLAQSHHVKQVLVAPGNAGTACSEKISNTAISISDHTALAQFCKEKKIEFVVVGPEAPLAAGIVGNLRSAGVQCFGPTAEAAQLESSKRFAKEFMDRHGIPTAQWKAFTKPEEACSFILSADFPALVVKASGLAAGKGVIVAKSKEEACKAVQEIMQEKAFGAAGETIVIEELLDGEEVSCLCFTDGKTVAPMPPAQDHKRLLEGDGGPNTGGMGAYCPAPQVSNDLLLKIKDTVLQRTVDGMQQEGTPYTGILYAGIMLTKNGPKVLEFNCRFGDPECQVILPLLKSDLYEVIQSTLDGLLCTSLPVWLENHTALTVVMASKGYPGDYTKGVEITGFPEAQALGLEVFHAGTALKNGKVVTHGGRVLAVTAIRENLISALEEAKKGLAAIKFEGAIYRKDVGFRAIAFLQQPRSLTYKESGVDIAAGNMLVKKIQPLAKATSRSGCKVDLGGFAGLFDLKAAGFKDPLLASGTDGVGTKLKIAQLCNKHDTIGQDLVAMCVNDILAQGAEPLFFLDYFSCGKLDLSVTEAVVAGIAKACGKAGCALLGGETAEMPDMYPPGEYDLAGFAVGAMERDQKLPHLERITEGDVVVGIASSGLHSNGFSLVRKIVAKSSLQYSSPAPDGCGDQTLGDLLLTPTRIYSHSLLPVLRSGHVKAFAHITGGGLLENIPRVLPEKLGVDLDAQTWRIPRVFSWLQQEGHLSEEEMARTFNCGVGAVLVVSKEQTEQILRDIQQHKEEAWVIGSVVARAEGSPRVKVKNLIESMQINGSVLKNGSLTNHFSFEKKKARVAVLISGTGSNLQALIDSTREPNSSAQIDIVISNKAAVAGLDKAERAGIPTRVINHKLYKNRVEFDSAIDLVLEEFSIDIVCLAGFMRILSGPFVQKWNGKMLNIHPSLLPSFKGSNAHEQALETGVTVTGCTVHFVAEDVDAGQIILQEAVPVKRGDTVATLSERVKLAEHKIFPAALQLVASGTVQLGENGKICWVKEE
Regarding B6, the “-LogP” value is 1.317.

B7: HNRNPC (protein, UniProt P07910 2-306, looked up)
Heterogeneous nuclear …: ASNVTNKTDPRSMNSRVFIGNLNTLVVKKSDVEAIFSKYGKIVGCSVHKGFAFVQYVNERNARAAVAGEDGRMIAGQVLDINLAAEPKVNRGKAGVKRSAAEMYGSVTEHPSPSPLLSSSFDLDYDFQRDYYDRMYSYPARVPPPPPIARAVVPSKRQRVSGNTSRRGKSGFNSKSGQRGSSKSGKLKGDDLQAIKKELTQIKQKVDSLLENLEKIEKEQSKQAVEMKNDKSEEEQSSSSVKKDETNVKMESEGGADDSAEEGDLLDDDDNEDRGDDQLELIKDDEKEAEEGEDDRDSANGEDDS
Regarding B7, the “-LogP” value amounted to 2.933.

B8: PRPSAP2 (protein, UniProt O60256 1-369, looked up)
Phosphoribosyl pyrophosphate …: MFCVTPPELETKMNITKGGLVLFSANSNSSCMELSKKIAERLGVEMGKVQVYQEPNRETRVQIQESVRGKDVFIIQTVSKDVNTTIMELLIMVYACKTSCAKSIIGVIPYFPYSKQCKMRKRGSIVSKLLASMMCKAGLTHLITMDLHQKEIQGFFNIPVDNLRASPFLLQYIQEEIPDYRNAVIVAKSPASAKRAQSFAERLRLGIAVIHGEAQDAESDLVDGRHSPPMVRSVAAIHPSLEIPMLIPKEKPPITVVGDVGGRIAIIVDDIIDDVDSFLAAAETLKERGAYKIFVMATHGLLSSDAPRRIEESAIDEVVVTNTIPHEVQKLQCPKIKTVDISMILSEAIRRIHNGESMSYLFRNIGLDD
Take B8: the “-LogP” value stood at 1.629.
